A value given as a limit tells only on which side of the number the result lay.

Data set [1] in a line: Tissue distribution in mice with no tumors. In kind it is in vivo, mouse. The following applies: tail vein injection.
In data set [2] the target is T1, HER3 (human ErbB3 extracellular domain) (Homo sapiens, UniProt P21860).
T1 construct: an immobilized peptide containing the extracellular domain of human HER3; purchased Prospec
The experiment in a line: ELISA of HerPBK10 binding to immobilized HER3. An excerpt:
(§1) FIGS. 12A-12C is a group of graphs showing HerPBK10 binds to HER3 and is not inhibited by patient serum. […] Un: no HerPBK10. […] Control samples were bound in bovine serum and receptor-binding verified by competitive inhibition with recombinant heregulin ligand (+Her). N=3. *, p<0.05 compared to control (−Her: no competitive inhibitor).
In general terms: In an ELISA, binding on a coated surface is turned into a signal by an enzyme label.

The subject of data set [3] is human cardiosphere-derived cells (CDCs). The experiment in a line: Human CDC viability. The following applies: 2 or 5 days exposure.
A further data set relates to HER2+ tumors. The following applies: cited from earlier work.
Data set [4] addresses T2, HER3 (Homo sapiens, UniProt P21860).
T2 construct: endogenous in cells
The experiment in a line: ELISA of HerPBK10 binding to HER2+ cells with competitive inhibitors or sera.
Description: as §1

For data set [5] the following is noted: repeat dosing, immune-competent mice; cited from earlier work.
For data set [6], the target named is T2, HER3. The following applies: cells in culture; cited from earlier work.
In another data set the target is T3, mouse HER3 (Mus musculus, UniProt Q61526).
T3 construct: endogenous in cells; host or cells: 4T1 mouse mammary tumor cells
T3 sequence (Q61526 20-1339): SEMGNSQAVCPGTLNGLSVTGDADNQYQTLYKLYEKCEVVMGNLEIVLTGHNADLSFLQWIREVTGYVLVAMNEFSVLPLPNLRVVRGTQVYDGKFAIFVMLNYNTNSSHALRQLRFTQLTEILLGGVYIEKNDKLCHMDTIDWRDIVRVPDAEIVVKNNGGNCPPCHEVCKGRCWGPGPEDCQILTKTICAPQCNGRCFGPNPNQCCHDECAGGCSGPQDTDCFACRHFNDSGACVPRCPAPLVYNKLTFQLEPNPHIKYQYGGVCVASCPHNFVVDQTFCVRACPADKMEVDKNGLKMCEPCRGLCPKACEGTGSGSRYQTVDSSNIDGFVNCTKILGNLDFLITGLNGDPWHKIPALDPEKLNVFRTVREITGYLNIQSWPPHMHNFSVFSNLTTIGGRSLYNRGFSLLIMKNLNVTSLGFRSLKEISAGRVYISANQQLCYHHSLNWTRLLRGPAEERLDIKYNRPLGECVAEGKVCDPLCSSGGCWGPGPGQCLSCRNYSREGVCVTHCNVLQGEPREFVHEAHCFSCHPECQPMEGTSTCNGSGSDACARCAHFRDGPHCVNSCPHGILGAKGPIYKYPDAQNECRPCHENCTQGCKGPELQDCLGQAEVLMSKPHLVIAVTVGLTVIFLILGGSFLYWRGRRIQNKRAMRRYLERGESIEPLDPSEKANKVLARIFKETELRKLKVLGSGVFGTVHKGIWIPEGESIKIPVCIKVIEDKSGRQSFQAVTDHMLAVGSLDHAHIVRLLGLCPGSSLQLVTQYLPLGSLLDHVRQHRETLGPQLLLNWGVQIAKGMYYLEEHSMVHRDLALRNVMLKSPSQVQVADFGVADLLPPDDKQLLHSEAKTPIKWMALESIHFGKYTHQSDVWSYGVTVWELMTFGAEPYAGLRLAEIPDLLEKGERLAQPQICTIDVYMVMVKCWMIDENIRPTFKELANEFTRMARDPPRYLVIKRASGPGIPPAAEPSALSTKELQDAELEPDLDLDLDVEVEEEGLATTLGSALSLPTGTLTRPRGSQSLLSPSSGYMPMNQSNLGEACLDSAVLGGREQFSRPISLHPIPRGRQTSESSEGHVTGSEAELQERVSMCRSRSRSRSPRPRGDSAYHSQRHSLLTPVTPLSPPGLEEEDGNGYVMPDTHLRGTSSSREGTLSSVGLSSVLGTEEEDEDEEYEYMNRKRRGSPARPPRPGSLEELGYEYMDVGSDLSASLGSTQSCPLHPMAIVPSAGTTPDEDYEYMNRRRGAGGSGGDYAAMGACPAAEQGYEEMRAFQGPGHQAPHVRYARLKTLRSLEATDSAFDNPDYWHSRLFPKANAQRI
The experiment in a line: Binding of HerPBK10 to 4T1 mouse mammary tumor cells. The following applies: soluble HER3 peptide as competitive inhibitor. From the text: FIGS. 13A-13C show the results that HerPBK10 binds to mouse HER3. […] Blue residues indicate amino acid differences. […] N=3. *, p<0.05 compared to HerPBK10 alone

The next data set has as its system MDA-MB-435 cells. The experiment in a line: Cy3-labeled oligonucleotide delivery, confocal immunofluorescence. In kind it is cell-based, human. The following applies: Cy3-labeled oligonucleotide 50 pmol, 1 h at 37° C. The procedure:
HerPBK10 transports a labeled oligonucleotide in MDA-MB-435 cells. To determine whether HerPBK10 can mediate single-stranded oligonucleotide delivery, a Cy3-labeled oligonucleotide (50 pmol) was incubated with HerPBK10 (5 μg) or Lipofectamine 2000 (Invitrogen, Carlsbad, CA, USA), a commercial transfection reagent as a comparative control, in 0.1 M HEPES/Optimem I (Invitrogen; Carlsbad, CA, USA) for 20 minutes at RT. The resulting mixture was added to MDA-MB-435 cells, which express HER, and incubated for 1 h at 37° C. Cells were fixed in 4% PFA for 15′ at RT and processed for immunofluorescence against HerPBK10. Cells were counterstained with DAPI to identify nuclei. Images were acquired using a Leica SP2 laser scanning confocal microscope.

T2 sequence (P21860 20-1342): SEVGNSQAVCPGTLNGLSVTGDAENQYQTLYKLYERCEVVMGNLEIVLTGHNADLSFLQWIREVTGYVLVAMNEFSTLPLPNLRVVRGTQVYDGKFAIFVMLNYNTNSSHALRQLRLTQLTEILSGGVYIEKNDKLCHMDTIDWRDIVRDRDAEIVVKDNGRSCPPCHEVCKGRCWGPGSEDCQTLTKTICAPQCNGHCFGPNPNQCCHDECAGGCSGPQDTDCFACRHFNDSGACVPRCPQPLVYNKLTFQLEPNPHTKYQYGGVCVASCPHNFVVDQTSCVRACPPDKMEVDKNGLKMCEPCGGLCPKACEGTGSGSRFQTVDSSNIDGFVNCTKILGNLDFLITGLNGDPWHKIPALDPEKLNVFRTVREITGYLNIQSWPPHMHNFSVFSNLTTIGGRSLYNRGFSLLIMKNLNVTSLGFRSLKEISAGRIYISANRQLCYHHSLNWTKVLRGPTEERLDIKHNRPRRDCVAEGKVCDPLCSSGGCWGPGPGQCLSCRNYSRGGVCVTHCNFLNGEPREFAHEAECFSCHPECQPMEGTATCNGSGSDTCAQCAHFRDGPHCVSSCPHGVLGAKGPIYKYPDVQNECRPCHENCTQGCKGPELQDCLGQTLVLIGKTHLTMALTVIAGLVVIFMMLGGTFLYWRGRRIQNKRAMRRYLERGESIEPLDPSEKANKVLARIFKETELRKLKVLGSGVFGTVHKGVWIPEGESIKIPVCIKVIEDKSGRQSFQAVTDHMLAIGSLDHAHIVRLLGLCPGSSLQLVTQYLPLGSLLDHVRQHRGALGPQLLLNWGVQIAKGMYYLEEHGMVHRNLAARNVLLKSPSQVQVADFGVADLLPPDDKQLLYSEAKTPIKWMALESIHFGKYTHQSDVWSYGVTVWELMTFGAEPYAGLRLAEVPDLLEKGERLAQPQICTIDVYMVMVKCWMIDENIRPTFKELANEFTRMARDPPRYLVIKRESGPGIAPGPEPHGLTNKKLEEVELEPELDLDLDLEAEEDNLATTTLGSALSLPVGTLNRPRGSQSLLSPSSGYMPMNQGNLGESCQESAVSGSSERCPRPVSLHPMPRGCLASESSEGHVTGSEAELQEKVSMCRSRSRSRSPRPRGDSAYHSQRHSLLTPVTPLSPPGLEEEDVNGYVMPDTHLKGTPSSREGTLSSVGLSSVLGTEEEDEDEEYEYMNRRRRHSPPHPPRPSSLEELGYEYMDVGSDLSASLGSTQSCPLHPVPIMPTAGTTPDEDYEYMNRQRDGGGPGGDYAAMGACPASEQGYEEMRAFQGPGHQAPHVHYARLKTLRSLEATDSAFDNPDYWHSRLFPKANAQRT
T1 sequence (P21860 20-643 limits assumed): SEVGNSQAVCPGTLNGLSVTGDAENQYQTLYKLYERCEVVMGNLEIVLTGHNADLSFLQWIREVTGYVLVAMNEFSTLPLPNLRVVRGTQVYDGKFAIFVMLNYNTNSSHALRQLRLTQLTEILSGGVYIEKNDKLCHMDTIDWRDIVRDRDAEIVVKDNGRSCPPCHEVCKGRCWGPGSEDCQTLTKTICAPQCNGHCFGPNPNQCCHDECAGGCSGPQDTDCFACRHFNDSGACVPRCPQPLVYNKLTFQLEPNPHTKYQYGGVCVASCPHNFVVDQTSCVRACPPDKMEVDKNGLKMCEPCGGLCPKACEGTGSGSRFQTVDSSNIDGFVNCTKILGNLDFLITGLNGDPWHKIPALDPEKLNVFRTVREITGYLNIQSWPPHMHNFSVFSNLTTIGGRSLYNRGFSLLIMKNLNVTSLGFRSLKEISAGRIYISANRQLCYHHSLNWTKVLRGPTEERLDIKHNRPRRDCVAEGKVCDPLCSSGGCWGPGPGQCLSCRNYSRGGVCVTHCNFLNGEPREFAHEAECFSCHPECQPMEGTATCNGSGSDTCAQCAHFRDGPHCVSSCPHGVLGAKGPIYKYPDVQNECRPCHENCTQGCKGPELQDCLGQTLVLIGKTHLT

As for “PBK10: recombinant protein derived from the adenovirus capsid penton base with decalysine”, in data set [1], the “brain delivery in mice without tumors” value is recorded as “no detectable brain delivery”.

B1: HerPBK10: receptor binding region of heregulin-α (aa 35-239) fused to adenovirus penton base with decalysine tail (protein)
chain: LPPRLKEMKSQESAAGSKLVLRCETSSEYSSLRFKWFKNGNELNRKNKPQNIKIQKKPGKSELRINKASLADSGEYMCKVISKLGNDSASANITIVESNEIITGMPASTEGAYVSSESPIRISVSTEGANTSSSTSTSTTGTSHLVKCAEKEKTFCVNGGECFMVKDLSNPSRYLCKCQPGFTGARCTENVPMKVQNQEKAEELYMRRAAMYEEGPPPSYESVVSAAPVAAALGSPFDAPLDPPFVPPRYLRPTGGRNSIRYSELAPLFDTTRVYLVDNKSTDVASLNYQNDHSNFLTTVIQNNDYSPGEASTQTINLDDRSHWGGDLKTILHTNMPNVNEFMFTNKFKARVMVSRLPTKDNQVELKYEWVEFTLPEGNYSETMTIDLMNNAIVEHYLKVGRQNGVLESDIGVKFDTRNFRLGFDPVTGLVMPGVYTNEAFHPDIILLPGCGVDFTHSRLSNLLGIRKRQPFQEGFRITYDDLEGGNIPALLDVDAYQASLKDDTEQGGGGAGGSNSSGSGAEENSNAAAAAMQPVEDMNDHAIRGDTFATRAEEKRAEAEAAAEAAAPAAQPEVEKPQKKPVIKPLTEDSKKRSYNLISNDSTFTQYRSWYLAYNYGDPQTGIRSWTLLCTPDVTCGSEQVYWSLPDMMQDPVTFRSTRQISNFPVVGAELLPVHSKSFYNDQAVYSQLIRQFTSLTHVFNRFPENQILARPPAPTITTVSENVPALTDHGTLPLRNSIGGVQRVTITDARRRTCPYVYKALGIVSPRVLSSRTFKKKKKKKKKK
Turning to B1, the “binding to immobilized HER3” value in data set [2] is on record as “bind to an immobilized peptide containing the extracellular domain of human HER3”. Besides, in [2] (pre-incubation with soluble HER3 peptide), the “binding to immobilized HER3 with HER3 block” value is given as “inhibited by pre-adsorption of HerPBK10 with free HER3 peptide”. For the same molecule, in data set [3], the CDC viability entry is listed as “no toxic or growth promoting effect on tumor cells or CDCs”. Also, the “dose for tumor growth ablation compared to doxorubicin” value with HER2+ tumors (HER2+ tumors in mice) is over 10 × lower dose. In addition, in the data set on HER2+ tumors (mouse, in vivo), the “effect on heart and liver tissue” value was “sparing heart and liver tissue”; the immunogenicity result is “no detectable immunogenicity”. The “binding with HER4 peptide or betacellulin” value in the data set with HER3 [4] (betacellulin 10 μg/mL) is listed as “not inhibited by a HER4 peptide or betacellulin”. For the same molecule, the “binding to cellular HER3 with pertuzumab (Pz)” value with HER3 [4] (heterodimerization-inhibiting antibody) is listed as “does not prevent HerPBK10 binding to cellular HER3”. Moreover, the “binding to HER2+ cells in patient serum” value in the data set with HER3 [4] (sera from HER2+ patients and age-matched controls) is on record as “do not prevent HerPBK10 binding to HER2+ cells in culture”. In addition, the “binding to human HER3+ cells with HER3 peptide” value with HER3 [4] (soluble HER3 peptide as competitive inhibitor) is given as “inhibits binding”. For the same molecule, the neutralizing antibody formation entry in data set [5] was “do not produce detectable neutralizing antibody formation against the protein”. In the data set with HER3 [6], the “receptor binding with polyclonal antibodies against whole adenovirus” value is “do not prevent receptor binding to cells in culture”. In the data set with mouse HER3, the “binding to mouse HER3+ cells with HER3 peptide” value is given as “inhibits binding”. Also, the “brain delivery in mice without tumors” value in data set [1] is “show brain localization”. In addition, the “oligonucleotide transport into cells” value in the data set on MDA-MB-435 cells was “colocalized with the oligonucleotide during binding and uptake”.
